Laboratory results from patent US20170319711A1 (Pfizer, published 2017).
One block for each binder: values may come before it.

Legend:
[1] = biological target: T1, Human 5T4 antigen on cells (human, UniProt Q13641 32-420); experiment: flow cytometry, 10 ug/mL, MDAMB468 cells
T1 construct: also called 5T4 oncofetal antigen
T1 sequence: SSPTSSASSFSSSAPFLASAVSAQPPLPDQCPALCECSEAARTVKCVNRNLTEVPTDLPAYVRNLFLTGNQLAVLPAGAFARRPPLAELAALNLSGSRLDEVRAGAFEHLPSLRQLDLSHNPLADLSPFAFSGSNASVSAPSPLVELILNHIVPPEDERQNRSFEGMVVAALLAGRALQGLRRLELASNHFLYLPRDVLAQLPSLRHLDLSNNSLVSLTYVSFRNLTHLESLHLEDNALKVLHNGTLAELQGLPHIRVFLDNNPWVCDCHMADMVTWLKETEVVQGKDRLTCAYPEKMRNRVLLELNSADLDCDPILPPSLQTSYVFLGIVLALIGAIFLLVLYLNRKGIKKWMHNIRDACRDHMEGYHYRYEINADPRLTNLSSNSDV
Procedure: (§1) Cells expressing the 5T4 antigen, and the negative control Raji cells, are plated at a density of 500,000 cells/well on non-tissue culture treated 96 well plates and kept on ice. Dilutions of the A1 and A1-IgG4 antibodies or A1-mcMMAF ADC are made in 3% bovine serum albumin BSA in Dulbecco's phosphate buffered saline (DPBS) and added to the plate at a final concentration of 10 μg/mL. The plates are then incubated on ice for 1 hour followed by 2 washes. The secondary antibody, PE (phycoerythrin) conjugated Goat Anti-Human IgG Fc is added to the wells. After 30 minutes of incubation at 4 C, the mean fluorescence intensity is then measured using a flow cytometer.

[2] = biological target: T2, mouse 5T4 (mouse, UniProt Q9Z0L0 32-361, limits assumed); experiment: ELISA (Example 7)
T2 sequence (looked up): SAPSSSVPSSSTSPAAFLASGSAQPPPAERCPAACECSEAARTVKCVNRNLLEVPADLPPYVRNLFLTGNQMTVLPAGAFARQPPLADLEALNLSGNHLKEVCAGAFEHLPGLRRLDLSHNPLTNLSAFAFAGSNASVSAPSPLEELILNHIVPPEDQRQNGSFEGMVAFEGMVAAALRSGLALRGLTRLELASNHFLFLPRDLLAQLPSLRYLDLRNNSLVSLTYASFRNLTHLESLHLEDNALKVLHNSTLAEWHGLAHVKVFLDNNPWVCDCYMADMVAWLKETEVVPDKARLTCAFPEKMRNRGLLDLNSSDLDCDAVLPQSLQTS

[3] = biological target: T1, Human 5T4 antigen on cells; experiment: flow cytometry, 10 ug/mL, A431 cells
Procedure: as §1

[4] = biological target: T3, human 5T4 ectodomain fused to the human IgG1-Fc domain (human, UniProt Q13641 32-355); experiment: SPR (BIAcore), low-density 5T4-Fc surface, pH 7.4
T3 construct: also called hu5T4; 5T4-Fc; not shown: Fc constant region from human IgG1
T3 sequence: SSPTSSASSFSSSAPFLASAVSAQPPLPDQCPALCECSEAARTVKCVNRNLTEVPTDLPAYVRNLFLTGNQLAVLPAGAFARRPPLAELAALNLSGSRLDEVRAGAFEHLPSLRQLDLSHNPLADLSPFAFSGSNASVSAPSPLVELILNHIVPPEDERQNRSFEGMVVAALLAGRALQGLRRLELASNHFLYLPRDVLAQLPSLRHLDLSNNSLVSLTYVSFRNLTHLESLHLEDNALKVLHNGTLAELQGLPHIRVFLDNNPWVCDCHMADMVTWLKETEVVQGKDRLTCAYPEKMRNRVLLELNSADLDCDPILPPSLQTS
Procedure: (§2) Surface plasmon resonance (SPR) analysis is performed utilizing the BIAcore® to determine the affinity constants for A1-IgG1 and A1-IgG4 binding to either human or cynomolgus 5T4 at pH 6.0 and pH 7.4. BIAcore® technology utilizes changes in the refractive index at the surface layer upon binding of the huA1 antibody variants to the human 5T4 protein immobilized on the surface layer. Binding is detected by SPR of laser light refracting from the surface. Analysis of the signal kinetics on-rate and off-rate allows the discrimination between non-specific and specific interactions. The 5T4 proteins used for this analysis consisted of the human or cynomolgus 5T4 ectodomain fused to the human IgG1-Fc domain and low densities (45.1 and 45.4 RU for human and cynomolgus respectively) are immobilized onto a CM5 chip to accurately measure affinity constants.
(§3) The measurement of specific binding to the 5T4 ectodomain is attained by subtracting binding to a reference surface that had only human IgG1-Fc protein immobilized onto the CM5 chip at the same density to that on the 5T4-Fc surfaces. Next, various concentrations of A1, A1-IgG4, or A3 antibodies in either HBS-EP pH 7.4 or MES-EP pH 6.0 buffer are injected over the surface. The surface is regenerated two times with Glycine pH 1.7+0.05% Surfactant P20 (GE Healthcare, BR-1000-54) between injection cycles.

[5] = biological target: T4, cynomolgus 5T4 ectodomain fused to the human IgG1-Fc domain (cynomolgus monkey; human, UniProt Q4R8Y9 35-355); experiment: SPR (BIAcore), low-density 5T4-Fc surface, pH 7.4
T4 construct: range 1-355; also called cyno5T4; not shown: Fc constant region from human IgG1
T4 sequence (looked up): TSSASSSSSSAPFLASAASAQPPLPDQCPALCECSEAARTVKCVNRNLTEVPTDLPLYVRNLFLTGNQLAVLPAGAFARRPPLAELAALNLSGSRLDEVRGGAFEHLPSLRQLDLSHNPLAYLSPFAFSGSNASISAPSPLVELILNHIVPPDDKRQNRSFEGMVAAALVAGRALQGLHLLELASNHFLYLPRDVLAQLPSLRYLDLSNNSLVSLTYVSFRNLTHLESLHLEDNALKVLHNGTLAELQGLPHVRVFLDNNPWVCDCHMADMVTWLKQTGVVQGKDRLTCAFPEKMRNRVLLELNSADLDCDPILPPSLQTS
Procedure: as §2, §3

[6] = biological target: T3, human 5T4 ectodomain fused to the human …; experiment: SPR (BIAcore), immobilized 5T4-Fc, pH 7.4
Procedure: as §2, §3

[7] = biological target: T4, cynomolgus 5T4 ectodomain fused to the …; experiment: SPR (BIAcore), immobilized 5T4-Fc, pH 7.4
Procedure: as §2, §3

[8] = biological target: T1, Human 5T4 antigen on cells; experiment: flow cytometry, 10 ug/mL, PC3mm2 cells
Procedure: as §1

[9] = biological target: T1, Human 5T4 antigen on cells; experiment: flow cytometry, 10 ug/mL, MDAMD361-DYT2 cells
Procedure: as §1

[10] = biological target: T3, human 5T4 ectodomain fused to the human …; experiment: SPR (BIAcore), immobilized 5T4-Fc, pH 6.0
Procedure: as §2, §3

[11] = biological target: T4, cynomolgus 5T4 ectodomain fused to the …; experiment: SPR (BIAcore), immobilized 5T4-Fc, pH 6.0
Procedure: as §2, §3

[12] = biological target: T3, human 5T4 ectodomain fused to the human …; experiment: SPR (BIAcore), immobilized 5T4-Fc, pH 6.0; remark: listed apart in the source
Procedure: as §2, §3

[13] = biological target: T4, cynomolgus 5T4 ectodomain fused to the …; experiment: SPR (BIAcore), immobilized 5T4-Fc, pH 6.0; remark: listed apart in the source
Procedure: as §2, §3

[14] = biological target: T3, human 5T4 ectodomain fused to the human …; experiment: SPR (BIAcore), low-density 5T4-Fc surface, pH 6.0
Procedure: as §2, §3

[15] = biological target: T4, cynomolgus 5T4 ectodomain fused to the …; experiment: SPR (BIAcore), low-density 5T4-Fc surface, pH 6.0
Procedure: as §2, §3

[16] = biological target: T3, human 5T4 ectodomain fused to the human …; experiment: SPR (BIAcore), immobilized 5T4-Fc, pH 7.4; remark: listed apart in the source
Procedure: as §2, §3

[17] = biological target: T4, cynomolgus 5T4 ectodomain fused to the …; experiment: SPR (BIAcore), immobilized 5T4-Fc, pH 7.4; remark: listed apart in the source
Procedure: as §2, §3

[18] = biological target: T4, cynomolgus 5T4 ectodomain fused to the …; experiment: SPR (BIAcore), immobilized 5T4-Fc, pH not printed in this row (7.4 by the order of the table); row shifted one column to the left; pH 7.4
Procedure: as §2, §3

[19] = biological target: T4, cynomolgus 5T4 ectodomain fused to the …; experiment: SPR (BIAcore), immobilized 5T4-Fc, pH not printed in this row (7.4 by the order of the table); row shifted one column to the left; pH 7.4 (pH cell missing; inferred from the order of the table)
Procedure: as §2, §3

- Mean Fluorescent Intensity [1]: 3500
- binding result [2]: no binding
- Mean Fluorescent Intensity [3]: 3900
- fold higher affinity relative to A1-IgG4 [4]: 1.2 fold
- fold better binding compared to A1-IgG4 [5]: 1.2 fold
- Kd [6]: 0.48 nM
- koff [6]: 0.000132 s⁻¹
- kon [6]: 275000 M⁻¹ s⁻¹
- Kd [7]: 1.8 nM
- koff [7]: 0.000273 s⁻¹
- kon [7]: 151000 M⁻¹ s⁻¹
- Mean Fluorescent Intensity [8]: 3400
- Mean Fluorescent Intensity [9]: 7000
- Kd [10]: 1.06 nM
- koff [10]: 0.000459 s⁻¹
- kon [10]: 431000 M⁻¹ s⁻¹
- Kd [11]: 2.76 nM
- koff [11]: 0.000641 s⁻¹
- kon [11]: 233000 M⁻¹ s⁻¹
- Kd [12]: 1.06 nM
- koff [12]: 0.000459 s⁻¹
- kon [12]: 431000 M⁻¹ s⁻¹
- Kd [13]: 2.76 nM
- koff [13]: 0.000641 s⁻¹
- kon [13]: 233000 M⁻¹ s⁻¹
- fold higher affinity relative to A1-IgG4 [14]: 1.5 fold
- fold better binding compared to A1-IgG4 [15]: 1.7 fold
- Kd [16]: 0.48 nM
- koff [16]: 0.000132 s⁻¹
- kon [16]: 275000 M⁻¹ s⁻¹
- Kd [17]: 1.8 nM
- koff [17]: 0.000273 s⁻¹
- kon [17]: 151000 M⁻¹ s⁻¹
B1: A1 (a humanized anti-5T4 IgG1 antibody) (antibody)
heavy: not shown
light: DIQMTQSPSSLSASVGDRVTITCKASQSVSNDVAWYQQKPGKAPKLLIYFATNRYTGVPSRFSGSGYGTDFTLTISSLQPEDFATYYCQQDYSSPWTFGQGTKVEIKRTVAAPSVFIFPPSDEQLKSGTASVVCLLNNFYPREAKVQWKVDNALQSGNSQESVTEQDSKDSTYSLSSTLTLSKADYEKHKVYACEVTHQGLSSPVTKSFNRGEC
notes: also called A1-IgG1; A1 antibody

- Mean Fluorescent Intensity [1]: 2500
- Mean Fluorescent Intensity [3]: 2400
- Mean Fluorescent Intensity [8]: 2100
- Mean Fluorescent Intensity [9]: 5500
- Kd [10]: 1.43 nM
- koff [10]: 0.000893 s⁻¹
- kon [10]: 626000 M⁻¹ s⁻¹
- Kd [11]: 4.7 nM
- koff [11]: 0.00095 s⁻¹
- kon [11]: 202000 M⁻¹ s⁻¹
- Kd [16]: 0.52 nM
- koff [16]: 0.000172 s⁻¹
- kon [16]: 328000 M⁻¹ s⁻¹
- Kd [17]: 2.11 nM
- koff [17]: 0.000382 s⁻¹
- kon [17]: 181000 M⁻¹ s⁻¹
B2: A1-IgG4 (a humanized anti-5T4 IgG4 antibody) (antibody)
heavy: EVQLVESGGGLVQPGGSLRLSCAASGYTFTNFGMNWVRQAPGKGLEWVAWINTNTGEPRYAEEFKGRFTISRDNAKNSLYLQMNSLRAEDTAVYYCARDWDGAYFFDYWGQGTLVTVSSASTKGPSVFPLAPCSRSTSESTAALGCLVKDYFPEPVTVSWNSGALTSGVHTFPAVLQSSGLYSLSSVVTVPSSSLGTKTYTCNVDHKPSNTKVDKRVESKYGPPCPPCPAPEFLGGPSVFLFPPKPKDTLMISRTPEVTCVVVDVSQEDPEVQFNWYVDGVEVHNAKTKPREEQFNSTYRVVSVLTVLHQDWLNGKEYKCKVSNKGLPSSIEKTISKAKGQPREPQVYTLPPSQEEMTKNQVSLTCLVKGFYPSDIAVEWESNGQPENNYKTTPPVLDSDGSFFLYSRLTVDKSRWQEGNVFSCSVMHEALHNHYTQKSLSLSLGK
light: B1 light
notes: Same variable domains as A1, human IgG4m heavy chain; also called A1-IgG4 Ab; Humanized A1 human IgG4m

- Kd [18]: 0.82 nM
- koff [18]: 0.000162 s⁻¹
- binding result [2]: no binding
- Kd [6]: 0.17 nM
- koff [6]: 3.06e-05 s⁻¹
- kon [6]: 179000 M⁻¹ s⁻¹
- kon [19]: 198000 M⁻¹ s⁻¹
- Kd [12]: 0.12 nM
- koff [12]: 4.17e-05 s⁻¹
- kon [12]: 351000 M⁻¹ s⁻¹
- Kd [13]: 0.41 nM
- koff [13]: 0.000187 s⁻¹
- kon [13]: 458000 M⁻¹ s⁻¹
B3: A3 (a mouse/human chimeric antibody) (antibody, human IgG1, kappa, V domains shown)
VH: EVQLVESGGGLVQPKGSLKLSCAASGFTFNTYAMNWVRQAPGKGLEWVARIRSKSNNYATYYADSVKDRFTISRDDSQSMLYLQMNNLKTEDTAMYYCVRQWDYDVRAMNYWGQGTLVTVSS
VL: DIVMTQSHIFMSTSVGDRVSITCKASQDVDTAVAWYQQKPGQSPKLLIYWASTRLTGVPDRFTGSGSGTDFTLTISNVQSEDLADYFCQQYSSYPYTFGQGTKLEIKR
notes: also called Chimeric A3; muA3-huIgG1
